This note sets out measurements from patent publication US20120251453A1 (SANFORD BURNHAM MEDICAL RESEARCH INSTITUTE, published 2012).

No end group written: not given here. Alexa Fluor 488 C5‑maleimide = fluorescent dye linked to the Cys thiol through maleimide

Assay [1] deals with T1, annexin 1 (Anxa1) expressed on mouse endothelial cells (F-2 cells; tumor vasculature in mice) (mouse, UniProt P10107 2-346).
T1 construct: whole, on cells; Endogenous protein on cells; also called Anxa1 expressed on the endothelial cell surface
T1 sequence (looked up): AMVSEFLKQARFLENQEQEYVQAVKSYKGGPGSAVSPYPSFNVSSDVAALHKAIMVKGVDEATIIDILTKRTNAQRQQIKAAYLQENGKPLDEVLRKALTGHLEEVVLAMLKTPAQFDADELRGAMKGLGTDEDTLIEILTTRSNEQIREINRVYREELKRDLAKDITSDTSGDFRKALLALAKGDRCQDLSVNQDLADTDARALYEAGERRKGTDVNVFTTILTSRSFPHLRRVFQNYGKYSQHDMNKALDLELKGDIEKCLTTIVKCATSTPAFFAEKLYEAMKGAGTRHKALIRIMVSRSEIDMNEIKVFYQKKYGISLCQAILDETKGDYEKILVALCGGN
The assay can be described thus: fluorescence microscopy of mouse endothelial F-2 cells cultured in vitro. On the procedure:
F-2 cells cultured on a filter of trans well insert was added with IF7C(RR)-conjugated FITC-poly-L-lysine to allow the reagent being bound to apical cell surface of F-2 cells. After washing the monolayer with medium, insert was placed in wells containing medium at 37° C. or at 4° C. Fluorescence moved to the lower chamber of insert was measured. C. Targeting and penetration of intravenously injected IF7C(RR)-conjugated FITC-poly-L-lysine in the B16 tumor in vivo in the mouse. Tissue section was immunostained for endothelial cell marker CD31.
Since IF7-SN38 is highly hydrophobic, there was a concern regarding a possibility that IF7-SN38 becomes insoluble after intravenous injection. Such may reduce the activity of IF7-SN38 in vivo. To increase the solubility of IF7-SN38 in aqueous environment, two arginine residues were added to IF7 after the cysteine residue. Thus IFLLWQR-C-RR (SEQ ID NO:17) or IF7C(RR) was synthesized. When IF7C(RR) was conjugated to FITC-poly-L-lysine, IF7C(RR)-conjugated FITC-poly-L-lysine bound to the surface of Anxa1-expressing mouse endothelial F-2 cells (FIG. 12A). […] When IF7C(RR)-conjugated FITC-poly-L-lysine was added to F-2 cells grown on a filter of the insert for trans well chamber, washed and then incubated in a medium at 37° C. or at 4° C., fluorescence migrated to the lower chamber from cells incubated at 37° C. but not at 4° C. […]

The target of assay [2] is recombinant Anxa1-His6 protein. The assay can be described thus: isothermal titration calorimetry, peptide injected into Anxa1-His protein, 23° C.; average over two Anxa1-His preparations. On the technique in general: Isothermal titration calorimetry measures the heat released or taken up as one component is titrated into another.
Assay [3] deals with T1, annexin 1 (Anxa1) expressed on mouse …. The assay can be described thus: intravital fluorescence of LLC tumors in a dorsal skinfold chamber after intravenous injection; signal intensity over time. On the procedure: The line with the lowest signal at 10 minutes represents RQ7-A488. Intensity of fluorescence was determined by Image J program. Error bars represent SD (n=3). Asterisks show statistical significance or p<0.0001, t test. (C) Fluorescence micrographs of tumor sections 20 min after injection with IF7-A488 and RQ7-A488. From left: IF7-A488, DAPI, merged, and bright field. IF7-A488 signals (upper row) were detected on endothelial cells of tumor vasculature (Scale bar=50 μm), while no RQ7-A488 signal was detected (lower row). Experiments were repeated 3 times, and representative results are shown. Arrows indicate fluorescence. (D) Fluorescence remained in circulation in mice with or without subcutaneous B16 tumors. IF7-A488 was injected intravenously through the tail vein, and fluorescence remaining in circulation was measured. […]
A Lewis lung carcinoma (LLC) tumor was produced in a donor nude mouse by subcutaneous injection, and small piece of tumor (less than 1 mm³) was transplanted to a dorsal skinfold chamber in a recipient nude mouse (8-10 weeks female Balb/c nude) as described (Lehr et al., Am J Pathol 1993; 143:1055-62; Oh et al., Nat Biotechnol 2007; 25:327-37). […] Signal intensity in the tumor from 0 min to 40 min was measured by Image J (NIH, Maryland). After 10 min, irradiation of specimens by a UV lamp was limited only to times when photos were taken to avoid fluorescence bleaching. […]

For assay [4] the target is unchanged. The assay can be described thus: in vivo phage targeting in B16 tumor-bearing mice pre-injected with control rabbit IgG or anti-Anxa1 antibody; colonies recovered from tissue homogenates. An excerpt:
FIGS. 1A-1H show the essential role of annexin 1 (Anxa1) in tumor growth and identification of a peptide sequence with tumor vasculature targeting activity in vivo. A and B. Growth of B16 tumors subcutaneously injected into Anxa1(+/−) and Anxa1(−/−) mutant mice. C. Histology of B16 tumors produced in Anxa1(+/−) and Anxa1(−/−) mice. Each scale bar represents 2.00 mm. D. Immunohistochemistry of B16 tumors for CD31 showing endothelial cells and vasculature. Each scale bar represents 200 μm. E. In vivo phage targeting in B16 tumor-bearing mice. Numbers of transformed colonies recovered from the tumor or lung were determined. […] F. In vivo tumor and organ targeting activity of IFLLWQR (SEQ ID NO:2) displaying phage. Phage was injected into B16 tumor bearing mice pre-injected with anti-Anxa1 antibody or with control rabbit IgG. G. In vitro plate assay for binding of IF7-A488 (upper line) and control RQ7-A488C (lower line) to recombinant […] protein produced by bacteria. H. Effect of IF7 (upper line) and control RQ7 (lower line) on binding of FITC-labeled polyacrylamide-LeA oligosaccharide to Anxa1-His₆ protein.
Mouse melanoma B16F1 cells (2×10⁵ cells/100 μl PBS) were injected subcutaneously into the dorsal flank of C57BL/6 female mice (8-10 weeks old). […] Colonies appearing on an agar plate after culturing at 37° C. for 20 hours were counted.

Assay [5] shares this target. In words: intravital fluorescence of LLC tumors in a dorsal skinfold chamber after intravenous injection; signal intensity over time, with or without pre-injected rabbit IgG or anti-Anxa1 antibody. On the procedure: (A) Lewis lung carcinoma (LLC) tumors were allowed to vascularize for 3 days in dorsal skinfold chamber window in nude mice. Mice were injected with 100 μl of 50 μM IF7-A488 (row a) or RQ7-A488 (row b) in 5% glucose in water. IF7-A488 was also injected to tumor-bearing mice pre-injected with rabbit IgG (row c) or with rabbit anti-Anxa1 antibody (row d). Fluorescence signals were monitored under a fluorescence microscope up to 40 min post-injection. From left: bright field before injection, and fluorescence at 0, 5, 20 min after injection. Far right, the boundary of tumor and stroma at 20 min (Scale bar=500 μm). (B) Quantitative analysis of fluorescence during the course of the analysis shown in A. The line with the highest signal at 10 minutes represents IF&-A488. The line with the second highest signal at 10 minutes represents the control IgG. […] Intensity of fluorescence was determined by Image J program. […] (C) Fluorescence micrographs of tumor sections 20 min after injection with IF7-A488 and RQ7-A488. […] IF7-A488 signals (upper row) were detected on endothelial cells of tumor vasculature (Scale bar=50 μm), while no RQ7-A488 signal was detected (lower row). […] Arrows indicate fluorescence. (D) Fluorescence remained in circulation in mice with or without subcutaneous B16 tumors. IF7-A488 was injected intravenously through the tail vein, and fluorescence remaining in circulation was measured. […]

B1: IF7C(RR)-conjugated FITC-poly-L-lysine (peptide, not shown: large carriers)
peptide: IFLLWQRCRR
modifications: also: conjugated to FITC-poly-L-lysine, site and chemistry not given here
notes: Polymer conjugate; also called IF7C(RR)-conjugated FITC-polylysine; IF7C(RR)-conjugated FITC-poly-lysine
In the case of B1, the binding result in assay [1] is “binds”.

The term Kd denotes the constant that tells how readily two partners part at equilibrium. With IFLLWQRKKKC [IF7K3C peptide (…)], in assay [2], the equilibrium dissociation constant (Kd) stood at 11 µM.

Regarding RQWLLFI (also: Alexa 488 conjugated, site of attachment not given here, also called RQ7-A488C; control RQ7-A488) [RQ7-A488 (Alexa 488 conjugated with RQWLLFI or reverse IF7)], the binding result in assay [3] is reported as “no binding”.

In the case of IFLLWQR (peptide, not shown: large carriers, also called IF7 phage; clone #2) [IFLLWQR (SEQ ID NO:2) displaying phage], in assay [4], the binding result is listed as “binds”.

On to IFLLWQRC(Alexa Fluor 488 C5‑maleimide) (Synthetic peptide (GenScript)) [IF7-A488 (chemically synthesized IF7 conjugated with fluorescent Alexa 488)], for which the binding result in assay [5] was “binds”.
